± gives the standard deviation of the averaged measurements.
B1: library; a variant is named by its letters at N, in order (parent)
chain: GCUGUCACCGGUGCUUGGUACGUUAUAUUCAGCCGGUCUGAUGAGUCUNNNNNNAGACGAAACAGC

Key:
(6R,S)-folinic acid [1] = variants of: B1; test: FACS-Seq fitted mean relative fluorescence mCherry/BFP without ligand (log10 relative fluorescence); HEK293T overexpressing SLC46A1; higher = higher reporter protein expression; settings: without (6R,S)-folinic acid; ligand present: no
Procedure, shortened: (§1)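 An mCherry reporter containing the ribozyme switch and an EF1α-BFP marker were introduced by lentivirus into HEK293T libraries. Cells were enriched, incubated 48 h with or without ligand, sorted into 6 bins by mCherry/BFP, and bin genomic DNA was PCR-amplified, barcoded and sequenced on MiSeq. Fluorescence represents the normalized fitted normal mean of the bin counts. Fitting was done on log10(mCherry/BFP), scaling to five spiked-in control ribozymes.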

(6R,S)-folinic acid [2] = variants of: B1; test: normalized RNA/DNA level without ligand (relative to sTRSVctl = 100) (log10 (% of sTRSVctl)); HEK293T overexpressing SLC46A1; higher = less ribozyme self-cleavage, higher mRNA level; settings: without (6R,S)-folinic acid; ligand present: no
Procedure, shortened: (§2)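 Only sequences with at least 100 DNA reads were analyzed, from HEK293T cells transfected with 4 µg per 6-well well of ribozyme switch library plasmids 72 h before RNA extraction with EDTA. Any ligand was added 1 h before transfection. RNA level was defined as RNA over DNA reads, normalized to a spiked-in non-cleaving sequence or to the top sequences, then scaled and log-transformed. The top set was 25 sequences, and the scaling was ×100 followed by log10.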

(6R,S)-folinic acid [3] = variants of: B1; test: FACS-Seq fitted mean relative fluorescence mCherry/BFP with ligand (log10 relative fluorescence); HEK293T overexpressing SLC46A1; ligand concentration (+) FACS-Seq: 6 mM; higher = higher reporter protein expression; settings: with (6R,S)-folinic acid; ligand present: yes
Procedure, shortened: as §1

(6R,S)-folinic acid [4] = variants of: B1; test: normalized RNA/DNA level with ligand (relative to sTRSVctl = 100) (log10 (% of sTRSVctl)); HEK293T overexpressing SLC46A1; ligand concentration (+) RNA-Seq: 6 mM; higher = less ribozyme self-cleavage, higher mRNA level; settings: with (6R,S)-folinic acid; ligand present: yes
Procedure, shortened: as §2

Variant | FACS-Seq fitted mean (log10) ((6R,S)-folinic acid [1]) | normalized RNA/DNA level without ligand (log10) ((6R,S)-folinic acid [2]) | FACS-Seq fitted mean (log10) ((6R,S)-folinic acid [3]) | normalized RNA/DNA level with ligand (log10) ((6R,S)-folinic acid [4])
AUUUGG | 0.293 ± 0.04 | 1.88 ± 0.0039 | 0.37 ± 0.04 | 1.96 ± 0.023
CAAAAA | – | 1.962 ± 0.007 | – | 1.96 ± 0.025
CAAAAG | – | 1.903 ± 0.0085 | – | 1.945 ± 0.015
CAACAA | – | 1.966 ± 0.015 | – | 1.99 ± 0.032
CUUGAG | 0.41 ± 0.091 | 1.9276 ± 0.0002 | 0.534 ± 0.33 | 2.005 ± 0.0023
CUUGAU | 0.145 ± 0.1 | 1.97 ± 0.018 | 0.602 ± 0.33 | 2.008 ± 0.018
GAAAGU | – | 1.9823 ± 0.00097 | – | 2.02 ± 0.034
GAAAGC | – | 1.966 ± 0.0051 | – | 2.0058 ± 0.0012
AAAAUC | – | 2.051 ± 0.0098 | – | 2.01 ± 0.023
AAAAUG | – | 1.935 ± 0.013 | – | 2.02 ± 0.024
UUUUUG | 0.145 ± 0.073 | 1.855 ± 0.016 | 0.176 ± 0.0085 | 2 ± 0.022
CUUUUC | 0.721 ± 0.2 | 2.06 ± 0.023 | 0.481 ± 0.091 | 2.02 ± 0.036
CUUUUU | 0.61 ± 0.16 | 1.991 ± 0.013 | 0.733 ± 0.016 | 2.021 ± 0.018
GUUCUA | 0.333 ± 0.067 | 2.03 ± 0.0066 | 0.412 ± 0.031 | 2.035 ± 0.0031
GAAAUU | – | 2.03 ± 0.0031 | – | 2.05 ± 0.025
GAAAUC | – | 2.044 ± 0.0097 | – | 2.027 ± 0.018
UUUGCG | 0.0287 ± 0.045 | 1.867 ± 0.0062 | 0.0548 ± 0.11 | 1.98 ± 0.042
UUUGCA | 0.00421 ± 0.011 | 1.981 ± 0.0053 | -0.275 ± 0.0052 | 1.99 ± 0.032
UUUGCU | 0.805 ± 0.017 | 2.043 ± 0.02 | 0.618 ± 0.24 | 2.01 ± 0.084
GUUUAG | 0.516 ± 0.048 | 1.965 ± 0.0083 | 0.495 ± 0.068 | 2.02 ± 0.033
AUUUUG | 0.462 ± 0.029 | 1.927 ± 0.014 | 0.552 ± 0.039 | 1.99 ± 0.05

Reference: the supplement of paper PMC6757056
